According to the DeepSol protein solubility set:

experiment: soluble on expression in E. coli; label from the status in PepcDB or PDB records

Sequence | soluble on expression in E. coli
KKAITCGEKEKQDLIKSLAMLKDGFRTDRGSHSDLWSSSSSLESSSFPLPKQYLDVSSQTDISGSFGINSNNQLAEKVRLRLRYEEAKRRIANLKIQLAKLDSEAWPGVLDSERDRLILINEKEELLKEMRFISPRKWTQGEVEQLEMARKRLEKDLQAARDTQSKALTERLKLNSKRNQLVRELEEATRQVATLHSQLKSLSSSMQSLSSGSSPGSLTSSRGSLVASSLDSSTSASFTDLYYDPFEQLDSELQSKVEFLLLEGATGFRPSGCITTIHEDEVAKTQKAEGGGRLQALRSLSGTPKSMTSLSPRSSLSSPSPPCSPLMADPLLAGDAFLNSLEFEDPELSATLCELSLGNSAQERYRLEEPGTEGKQLGQAVNTAQGCGLKVACVSAAVSDESVAGDSGVYEASVQRLGASEAAAFDSDESEAVGATRIQIALKYDEKNKQFAILIIQLSNLSALLQQQDQKVNIRVAVLPCSESTTCLFRTRPLDASDTLVFNEVFWVSMSYPALHQKTLRVDVCTTDRSHLEECLGGAQISLAEVCRSGERSTRWYNLLSYKYLKKQSRELKPVGVMAPASGPASTDAVSALLEQTAVELEKRQEGRSSTQTLEDSWRYEETSENEAVAEEEEEEVEEEEGEEDVFTEKASPDMDGYPALKVDKETNTETPAPSPTVVRPKDRRVGTPSQGPFLRGSTIIRSKTFSPGPQSQYVCRLNRSDSDSSTLSKKPPFVRNSLERRSVRMKRPSSVKSLRSERLIRTSLDLELDLQATRTWHSQLTQEISVLKELKEQLEQAKSHGEKELPQWLREDERFRLLLRMLEKRMDRAEHKGELQTDKMMRAAAKDVHRLRGQSCKEPPEVQSFREKMAFFTRPRMNIPALSADDV | soluble
MFGKGENLAATDYQMVRHPDIHQAQCLYQTFRDKAVCLTGGDFTGRVIVCQHHGCGIVIQGAFNHFPGMDFRAVDGAGEEGFTGNQLILVIQIQHPELFTLQSRHVQNQPFPCRTGGGEGHAGFMKMAVQGFQGPQNETALAGRHFSGQKGNLLHCSCPLSVNNAHNGAAFRMLQGVIPQTVIMNRHGITLRTAGVMTVRHQTGGNAGGFRAHFSAVTVHDVKQHPCFVIIVIRFGCHKCATVVQGVQIPDTTAVVFIQTVHPAEDPGLQGHPLWNEAKMLRPEADALFIRDYGGNQLLQASLRCTGRRGGVLRQCFHV | not soluble
MMINTQEDKLVSAHDAEEFHRFFVGHDSDLQQEVTTLLTREAHLLDIQAYKAWLEHFVAPEIKYQVISRELRSTSERRYQLNDAVNLYNENYQQLKVRVEHQMDPQNWANNPKIRFTRFVTNVTAAKDKSAPEILHVRSNLILHRARRENQVDVFYATREDKWKRIEGGGIKLVERFVDYPERIPQTHNLLVFL | soluble
MSTINQKLSDNFREAWQKQNLEVNLEEVIEKWELTKYVKDNFICPEVNISTLPSYSFVLKFMFKLKKPYISLDENDFYIIDNPLRKDKVLNLPFVAPSSWKGSLRNSLWQLNYDYENDKIRRIFGNERSPNSEDIVLRMGRLYFFPTFFSKKSLEIINPHNRESRVGTVPILMESVPQDTTGYFTLIYVPFDLIGCEENEIKKQVACDIQLISKGLKSMFTYYGFGAKTSSGYGTSYEDITDGTITLRVKGIEVSLKDIDEVKPPAEGYSKYLNEDGSVKEEFKGSGKYGLLSDKEYYKIKNQLEGSRNEYRDFRQWYGLNGEKWQKHLNSFKYPKPEWPTWNFGNFFQLIEVSKNIATSLELSGAHNECMAGDPLEHHHHHH | not soluble
MGNKIHPIGFRLGITRDWESRWYAGKKQYRHLLLEDQRIRGLLEKELYSAGLARVDIERAADNVAVTVHVAKPGVVIGRGGERIRVLREELAKLTGKNVALNVQEVQNPNLSAPLVAQRVAEQIERRFAVRRAIKQAVQRVMESGAKGAKVIVSGRIGGAEQARTEWAAQGRVPLHTLRANIDYGFALARTTYGVLGVKAYIFLGEVIGGQKPKARPELPKAEERPRRRRPAVRVKKEE | soluble
MAHHHHHHSLKILFVAAEGAPFAKTGGLGDVIGALPKSLVKNNNEVSVILPYYDVVDAKFGDQIEDLFYFFTNVGWRREYVGIKHIFRDGVDFYFIDNKHYFYRGQIYGEFDDGERFAYFQLAALEAMEKIQFIPDILHVHDYHTAMIPYLLKEKYHWINAYHGIKTVFTIHNIEFQGQFNPSMLGELFGVGDERYRDGTLRWNDCLNWMKAAVLYADRVTTVSPSYAKEIMTPEFGKGLDQIMRMESGKLSGVVNGIDTDLFDPETDPHLAVHFSKDDLSGKAKNKAALQERVGLPVREDVPLVGIVSRLTDQKGFQLVVDQLNTMMQLDLQIVLLGTGYADFENAFAWFGHAYPDKMSANITFDLELAQQIYAASDIFLMPSAFEPCGLSQMMAMRYGTLPLVHEVGGLRDTVIPYNEFEKTGTGFGFQDFSGYWLTKTLEAALDVYYNRKEDWKILQKNAMTTDFSWDTASQSYEHLYKELAEG | soluble
MPGKRRFRRSPVKYDFFTRLLQTGFLSTDSLLYPESQFHICTQLSSQDAYADNLEHHHHHH | not soluble
MILREFCAENLTDLTRLDKAIISRVELCDNLAVGGTTPSYGVIKEANQYLHEKGISVAVMIRPRGGNFVYNDLELRIMEEDILRAVELESDALVLGILTSNNHIDTEAIEQLLPATQGLPLVFHMAFDVIPKSDQKKSIDQLVALGFTRILLHGSSNGEPIIENIKHIKALVEYANNRIEIMVGGGVTAENYQYICQETGVKQAHGTRITQMAGDPLEHHHHHH | soluble
MGSDKIHHHHHHMTAQTHNDVAVCWNQNANQWTSDVRNGYDVYRDFFTLPAFLQFLPTMADLNVIDFGCGEGSNTRHFAQMGAKVVGIDISNGLIEHARQAERVDPVGITYKIVSYSSDTGFPASSFDAVVSTMALMDGPDLQGAMHEAYRLLRPGGFVAFSVLHPCFITPGWQWQKDENGQTTGLCTSRYFDKSGFTENWKFGNRPKDENVAPFAVPRFPRTIGDYINAVASVGFRISKIEEPQPTEEACKAIPQLRRWRDLGAFLLLVIAERPK | not soluble
MSAQINNIRPEFDREIVDIVDYVMNYEISSKVAYDTAHYCLLDTLGCGLEALEYPACKKLLGPIVPGTVVPNGVRVPGTQFQLDPVQAAFNIGAMIRWLDFNDTWLAAEWGHPSDNLGGILATADWLSRNAVASGKAPLTMKQVLTAMIKAHEIQGCIALENSFNRVGLDHVLLVKVASTAVVAEMLGLTREEILNAVSLAWVDGQSLRTYRHAPNTGTRKSWAAGDATSRAVRLALMAKTGEMGYPSALTAPVWGFYDVSFKGESFRFQRPYGSYVMENVLFKISFPAEFHSQTAVEAAMTLYEQMQAAGKTAADIEKVTIRTHEACIRIIDKKGPLNNPADRDHCIQYMVAIPLLFGRLTAADYEDNVAQDKRIDALREKINCFEDPAFTADYHDPEKRAIANAITLEFTDGTRFEEVVVEYPIGHARRRQDGIPKLVDKFKINLARQFPTRQQQRILEVSLDRARLEQMPVNEYLDLYVI | soluble
MSLGEGFPSFEEMVEKELEGYSGFRFLDRGIYAKQLEQWFRFFPKKQFLILKSENFFEDPAKEFRKVICFLNLPVWELPEYANVNWKVLARSKRVERYQKINKETRERLLYYFKPFNDQLYALINKNFGWKEGHHHHHH | not soluble
MKENAVRRANDPKRREKIIQATLEAVKTYGVHAVTHRKIAAIAQVPLGSMTYYFAGMDALLSEAFTLFTENMSRQYQDFFAQVTDAEGACQAITEMIYGSQVTTPDNMALMYQLYAYASDKPALKIVMQNWMQRSQNTLAQWFDAQTARALDAFIEGMTLHFVTDRTPLAREAILQMVKRIAGVSMSCHSALGNKKPTNLEPKWRG | not soluble
MGSDKIHHHHHHSCDNKGDYWGAMESSKATLTLERICDMATLSQDSVELLSNILGMNTEELYRTDVVMIGKVTSEETGFYQYPRFLIAKDREMKEVLTEAYVHRDTEGTFYAFLESNMLPVGETYYCAMVDYNYGYNGRPGLLDHVLGGNTRGERYSEVKPFRLSGLPRLVVHDAHFTGYSFYLSAEVRFKSNGGIIEQGACYSSTKRIPTVDDQKTLARETRNYDYSFLEVEVTDLLPNTHYYIRPYVTTEEGTGYGPVVEFTTEPGTEPIIDYFTMYIDTDRSVNLYATFYIDNYQITHYGYSYGIYSPETGTVTDEQKIEVPLEDNHGQQLSKVITGLRPGILYAFRVYAENGVGVTYSGYQTVKIPVE | not soluble
